Data on one substance can be found in patent US20190100594A1.

Broadly, the EC50 (read off the curve) is the concentration giving half of the maximal effect. Higher therefore signals a need for much substance.

Read-outs that look alike come from different tables or passages of the source.

Assay [1] concerns the target GITR expressed on CHO cells (Homo sapiens (Human)) (UniProt Q9Y5U5). The experiment in a line: flow cytometry on GITR-expressing CHO cells, MFI-FL4. On the technique in general: Flow cytometry measures light scatter and fluorescence of single cells or particles in a stream.
For assay [2] the target is unchanged. Described as above. This is another data set of the same source.

Chain of GITR expressed on CHO cells (Homo sapiens (Human)) (Q9Y5U5 26-241 limits assumed): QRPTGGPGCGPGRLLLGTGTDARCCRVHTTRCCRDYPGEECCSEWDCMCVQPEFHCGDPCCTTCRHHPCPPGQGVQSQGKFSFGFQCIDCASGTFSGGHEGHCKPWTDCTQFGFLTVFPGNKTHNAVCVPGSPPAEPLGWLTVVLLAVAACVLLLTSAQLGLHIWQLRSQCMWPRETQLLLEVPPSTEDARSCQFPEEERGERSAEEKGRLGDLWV

Regarding TRX-518 (antibody), the EC50 (read off the curve) is 3 nM in assay [1] and 1 nM in assay [2].
